# Legend:
# [1] = target: T1, full length human PD-1 on cells (human, UniProt Q15116 25-288); test: cell-based receptor-ligand blocking, flow cytometry: CHO-K1-hPD-1 cells, blocked ligand biotinylated PD-L2-Fc, streptavidin-Alexa 488
# T1 construct: Also used here for PD-1 on human T cells/PBMC; also called CHO-K1-hPD-1; hPD-1
# Protocol: CHO-K1-hPD-1 cells were cultured and expanded in T-75 culture flasks to 60-80% confluence. The culture media was aspirated, and the cells were washed twice with PBS. The cells were treated with TrypLE™ Express (Invitrogen) and collected. Trypsin was neutralized by the addition of 8 mL culture medium, and cell counts were determined. […] The cells were blocked for 15 minutes at 37° C. Meanwhile, the wells of 96-well round-bottom plates were blocked with 200 uL blocking buffer for 1 hour at 37° C. The blocking buffer was discarded, and 200 uL cells were dispensed to each well of the 96-well plates (2×10^5 cells/well). The plates were centrifuged at 500 g for 5 minutes, and the supernatants were discarded. The cells were resuspended in 100 uL antibody prepared in blocking buffer. […] The plates were incubated at 4° C. for 90 minutes and washed twice with 200 uL blocking buffer. […] The plates were washed three times with blocking buffer and resuspended in 200 uL blocking buffer. The mean fluorescence intensity (MFI) was determined using FACS Calibur (BD).
# [2] = target: T2, human PD-1^ECD-hFc protein (Immunogen A) (human, UniProt Q15116 25-167); test: ELISA, coated human PD-1ECD-hFc; antibody 0.001 nM
# T2 construct: Biotinylated for the Octet assay; also called PD-1-hFc; hPD-1^ECD-hFc; not shown: human IgG Fc fragment (hFc)
# Protocol: (§1) 100 uL of the diluted recombinant proteins were added to each well of 96-well plate. The plates were sealed with plastic film and incubated at 4° C. overnight. The plates were washed twice with wash buffer (PBS+0.01% (v/v) Tween20), and incubated with blocking buffer (PBS+0.01% (v/v) Tween20+1% (w/w) BSA) at room temperature for 2 hours. The blocking buffer was aspirated away, and 100 uL of purified anti-PD-1 antibodies were added to each well and incubated for 2 hours at 37° C. The plates were washed three times with wash buffer (PBS+0.01% (v/v) Tween20). HRP-conjugated secondary antibody (Sigma) was added to each well and incubated for 2 hours at 37° C. After the plates were washed three times with wash buffer, 100 uL TMB substrate was added to each well and incubated for 30 minutes at room temperature. 100 uL stop solution (0.1N HCl) was added to each well to stop the reaction. The absorbance at 450 nm was measured with an ELISA plate reader (384plus SpectraMax, Molecular Devices).
# [3] = target: T2, human PD-1^ECD-hFc protein (Immunogen A); test: ELISA, coated human PD-1ECD-hFc; antibody 0.00001 nM
# Protocol: as §1
# T2 sequence (Q15116 25-167): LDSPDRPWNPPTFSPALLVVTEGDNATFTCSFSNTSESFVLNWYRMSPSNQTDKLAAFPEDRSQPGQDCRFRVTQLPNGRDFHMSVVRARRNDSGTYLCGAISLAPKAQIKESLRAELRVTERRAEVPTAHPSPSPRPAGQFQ
# T1 sequence (Q15116 25-288 limits assumed): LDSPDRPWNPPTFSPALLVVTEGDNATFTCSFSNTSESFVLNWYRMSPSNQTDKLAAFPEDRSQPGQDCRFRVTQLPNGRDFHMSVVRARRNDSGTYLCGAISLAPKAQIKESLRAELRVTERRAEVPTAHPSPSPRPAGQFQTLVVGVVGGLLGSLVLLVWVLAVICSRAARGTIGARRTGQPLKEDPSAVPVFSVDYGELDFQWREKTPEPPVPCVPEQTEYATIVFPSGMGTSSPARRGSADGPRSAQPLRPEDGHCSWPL
IC50 (read off the curve) [1],OD450 nm [2],OD450 nm [3],Binder
~2 nM,–,–,"chimeric anti-PD-1 antibody 76G5B3 (antibody, V domains shown, Purified from hybridoma of Harbour H2L2 mice: human variable regions, rat constant regions) VH: QVQLVESGGGVVQPGRSLRLSCAASGFTFSDYGFHWVRQAPGKGLEWVAVIWYDGSNEYYTDSVKGRFTISRDNSKNTLYLQMNSLRAEDTAMYFCVVNPFDYWGQGTLVTVSS VL: DIQMTQSPSSLSAFVGDRVTITCRASQGINHYLAWYQQKPGKAPNLLILAASTLLSGVPSRFGGRGSGTDFTLIISSLQPEDVATYYCQKYDSAPYTFGQGTKLEIK"
–,0.468,0.405,"chimeric anti-PD-1 antibody 21G8F11 (antibody, V domains shown, Purified from hybridoma of Harbour H2L2 mice: human variable regions, rat constant regions) VH: EVQLLESGGGLAQPGGSLRLSCAASGFSFNTYLMHWVRQAPGKGLEWVSAISGGGGNTYYADSVKGRFTISRDNSKNTLYLQMNSLRAEDTAVYYCAKENRIPVAPFDYWGQGTLVTVSS VL: DIQMTQSPSTLSASVGDRVTITCRASQSISTWLAWYQQKPGKAPKLLIYKASSLESGVPSRFSGSGSGTEFTLTISSLQPDDLATYYCQQYNSFSWTFGQGTKVEIK"
